Results published in patent US20220372112A1 (KEYMED BIOSCIENCES, published 2022).

T1: human Claudin 18.1 (human, UniProt P56856 1-261)
T1 construct: whole, on cells
T1 sequence (looked up): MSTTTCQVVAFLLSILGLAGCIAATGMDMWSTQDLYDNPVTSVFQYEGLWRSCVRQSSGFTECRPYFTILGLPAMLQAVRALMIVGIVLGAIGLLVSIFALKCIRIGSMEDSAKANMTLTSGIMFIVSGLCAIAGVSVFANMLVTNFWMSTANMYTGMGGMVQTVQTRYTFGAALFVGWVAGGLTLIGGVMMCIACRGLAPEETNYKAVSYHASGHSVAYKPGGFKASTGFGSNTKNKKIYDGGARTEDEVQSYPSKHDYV

T2: human Claudin 18.2 (human, UniProt P56856-2 1-261)
T2 construct: whole, on cells
T2 sequence (looked up): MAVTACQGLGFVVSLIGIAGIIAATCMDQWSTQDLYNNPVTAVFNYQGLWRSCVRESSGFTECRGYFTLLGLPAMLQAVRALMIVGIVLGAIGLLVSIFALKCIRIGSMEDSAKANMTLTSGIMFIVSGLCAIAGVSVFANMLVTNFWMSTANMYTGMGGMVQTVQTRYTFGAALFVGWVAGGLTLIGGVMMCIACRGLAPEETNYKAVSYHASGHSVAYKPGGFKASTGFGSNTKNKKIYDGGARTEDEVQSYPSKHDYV


Columns and labels:
[1] = target: T1, human Claudin 18.1; test: flow cytometry on HEK293-Claudin 18.1 cells, chimeric IgG1
Description: (§1) The HEK293-Claudin 18.1 cells, HEK293-Claudin 18.2 cells and HEK293 cells at logarithmic growth phase were taken, after digesting, added at 5×10⁴ cells/100 μL to the U-shaped 96-well plate, centrifuged at 1100 rpm for 3 minutes, the supernatant was discarded, the cells were gently patted and loosed, 50 μL of antibody diluted according to the series was added to each well (antibody concentration starts from 100 nM, 5 times dilution in 8 series), and incubate at 4° C. for 1 hour. After the incubation, 140 μL 0.5% BSA was added to each well to wash 3 times, the secondary antibody AlexaFluro647 anti-human IgG (Jackson ImmunoResearch, catalog number: 109-606-170) was added with 30 μL/well, and incubated at 4° C. for 40 minutes. After the incubation, 140 μL 0.5% BSA was added to each well to wash 3 times, and finally resuspended each well with 50 μL PBS for flow cytometry (iQue Screener) detection.

[2] = target: T2, human Claudin 18.2; test: flow cytometry (iQue) on HEK293-Claudin 18.2 cells, chimeric IgG1
Description: as §1

[3] = target: T2, human Claudin 18.2; test: flow cytometry (iQue) on cells, antibody from 100 nM in 5-fold steps; cell line not named in Example 5
Description: The cells at logarithmic growth phase were taken, blocked with 3% BSA for 30 minutes, plated at 5×10⁴ cells/100 μL into a U-shaped 96-well plate, centrifuged at 1100 rpm for 3 minutes, the supernatant was discarded, the cells were gently patted and loosed, 50 μL of antibody diluted according to the series was added to each well (antibody concentration starts from 100 nM, 5 times dilution in 8 series), incubated at 4° C. for 1 hour. After the incubation, 140 μL of 0.5% BSA was added to each well to wash 3 times, AF 647 APC anti-human secondary antibody was added with 30 μL/well and incubated at 4° C. for 40 minutes. After the incubation, 140 μL of 0.5% BSA was added to each well to wash 3 times, and finally resuspended each well with 50 μL PBS for iQue (Intellicyt, USA) detection (shown in Table 2).

| Binder | EC50 [2] | EC50 [3] | binding result [1] |
| --- | --- | --- | --- |
| 9C9 (antibody, V domains shown, also called Clone 9C9) VH: EVQLKESGPGLVAPSQSLSITCTVSGFSLTNYGVSWIRQPPGKGLEWLGAIWAGGNTNYNSALMSRLSIRKDNSKSQVFLKMNSLQTDDTAMYYCARVGYGNSFANWGQGTLVTVSA VL: DIVMTQSPSSLTVTAGEKVTLSCKSSQTLLNSGNQKNYLTWYQQKPGQPPKLLIYWASTRESGVPDRFTGSGSGTDFTLTISSVQAEDLAVYYCQNNYFYPLTFGAGTRLEIK | 1.46 nM |  | no binding (tested: 100 nM (highest concentration tested)) |
| 18A9 (antibody, V domains shown, also called Clone 18A9; 18A9 Chimera) VH: QVQLQQSGREVVRPGTSVKVSCKPSGYAFTNYLIDWVKQRPGQGLEWIGGINPGSGDTVYNEKFKAKATLTADKSSMTANMQLSSLTSDDSAVYFCARRVRGNSFDSWGQGTLVTVSA VL: DIVMSQSPSSLTVTAGEKVTMSCKSSQSLLNSGNQKNYLTWYQQKPGQPPKLLIYWASTRESGVPDRFTGSGSGKDFTLTISSVQAEDLALYYCQNNYFYPLTFGAGTKLELK | 0.31 nM | 1.03 nM | no binding (tested: 100 nM (highest concentration tested)) |
| 9D12 (antibody, V domains shown, also called Clone 9D12) VH: EVQLQQSGREVVRPGTSVKVSCKPSGYAFTNYLIDWVKQRPGQGLEWIGGINPGSGDTVYNERFKDKATLTADKSSSSANMQLSSLTSDDSAVYFCARRVRGNSFDSWGQGTLVTVSA VL: DIVMTQSPSSLTVTAGQKVTMSCKSSQSLLNSGNQKNYLTWYQQKPGQPPKLLIYWASTRESGVPDRFTGSGSGKDFTLTISSVQAEDLAVFYCQNNYFYPLTFGAGTKLELK | 6.78 nM |  | no binding (tested: 100 nM (highest concentration tested)) |
| 18G5 (antibody, V domains shown, also called Clone 18G5) VH: EVQLQQSGREVVRPGTSVKVSCKPSGYAFTNYLIDWVKQRPGQGLEWIGGINPGSGDTVYNEKFKAKATLTADKSSMTTNMQLSSLTSDDSAVYFCARRVRGNSFDSWGQGTLVTVSA VL: DIVMTQSPSSLTVRAGEKVTMTCKSSQSLFNSGNQRNYLTWYQQKPGQPPKLLLYWATARESGVPDRFTGSGSGTDFTLSISSVQAEDLAVYYCQNVYFYPLTFGAGTKLEIK | 3.79 nM |  | no binding (tested: 100 nM (highest concentration tested)) |
| 25F5 (antibody, V domains shown, also called Clone 25F5) VH: QVQLKQSGAELVKPGASLKLSCKASGYTFTTYGINWVRQRPEQGLEWIGWIFPGDATTMYNEKFKGTATLTADKSSSTAYMQLSGLTSEDSAVYFCARFYYGNSFVDWGQGTLVTVSA VL: DIVMTQSPSSLTVTAGEKVTMSCKSSQSLLNSGNQKNYLTWYQQKPGQPPKLLIYWASTRESGVPDRFTGSGSGTDFTLTISSVQAEDLAVYYCQNAYYYPLTFGAGTKLEIK | 2.14 nM |  | no binding (tested: 100 nM (highest concentration tested)) |
| 13A8 (antibody, V domains shown, also called Clone 13A8) VH: EVKLVESGGGLVRPGGSLKVSCAASGITFSRYAISWVRQTPEKRLEWVATISSGDSYTYYLDSVKGRFTISRDDAKNTLYLQMSSLRSEDTAMYYCGRLGYGNAMDYWGQGTSVTVSS VL: NIMMTQSPSSLTVTAGEKVTMSCKSSQSLLNSGNQKNYLTWYQQKPGQPPKLLIYWASTRESGVPDRFTGSGSGTDFTLTISSVQAEDLAVYYCQNDYSYPLTFGAGTKLEIK | 0.25 nM |  | no binding (tested: 100 nM (highest concentration tested)) |
| 15A7 (antibody, V domains shown, also called Clone 15A7) VH: QVQLQQSGAELVKPGYSVKLSCKASGYTFTNFGINWVRQRPEKGLEWIGWIFPGDGTTKYNENFKGKATLTTDKSSSTAYMQLSRLTSEDSAVYFCARFYYGNSFVNWGQGTLVTVSA VL: DIVMTQSPSSLTVTAGEKVTLSCKSSQTLLNSGNQKNYLTWYQQKPGQPPKLLIHWASTRESGVPDRFTGSGSGTDFTLTISSVQAEDLAVYYCQNNYFYPLTFGAGTKLEIK | 0.59 nM |  | no binding (tested: 100 nM (highest concentration tested)) |

These reach a lower EC50 [2]. Values come first.

| EC50 [2] | EC50 [3] | Binder | binding result [1] |
| --- | --- | --- | --- |
| 0.21 nM |  | 15D11 (antibody, V domains shown, also called Clone 15D11) VH: QVQLQQSGPGLVAPSQSLSITCTVSGFSLTNYGVSWIRQPPGKGLEWLGAIWAGGNTNYNSALMSRLSIRKDNSKSQVFLKMNSLQTDDTAMYYCARVGYGNSFANWGQGTLVTVSA VL: DIVMTQSPSSLTVTAGEKVTMSCKSSQSLLNSGNLRNYLTWYQQKPGRPPKLLIYWASTRESGVPDRFTGSGSGTDFTLTISSVQAEDLAVYYCQNNYFYPLTFGAGTKLELK | no binding (tested: 100 nM (highest concentration tested)) |
| 0.19 nM |  | 25A5 (antibody, V domains shown, also called Clone 25A5) VH: EVQLKESGPGLVAPSQSLSITCTVSGFSLTNYGVSWIRQPPGKGLEWLGAIWAGGNTNYNSALMSRLSIRKDNSKSQVFLKMNSLQTDDTAMYYCARVGYGNSFANWGQGTLVTVSA VL: DIVMTQSPSSLTVTAGEKVTMSCKSSQSLLNSGNQRNYLTWYQQKPGQPPKLLIYWASTRESGIPDRFIGSGSGTDFTLTISSVQAEDVSVYYCQNNYIFPLTFGAGTKLEIK | no binding (tested: 100 nM (highest concentration tested)) |
| 0.17 nM | 3.32 nM | 15F9 (antibody, V domains shown, also called Clone 15F9; 15F9 Chimera) VH: EIQLVQSGPELKKPGETVKISCKASGYTFTNYGINWVKQAPGKGLKWMGWINPNTGETTYAEEFKGRFALSWKTSASTAYLQINNLKNEDTATYFCARLYYGNRFDYWGQGTTLTVSS VL: DIVMTQSPSSLTVTAGEKVTMSCKSSQSLLNSGNQRNYLTWYQQKPGQPPKLLIYWASTRESGVPDRFTGSGSGTDFTLTISSVQAEDLAVYYCQNAYYYPLTFGAGTKLEIK | no binding (tested: 100 nM (highest concentration tested)) |
| 0.21 nM |  | 9A8 (antibody, V domains shown, also called Clone 9A8) VH: QVQLQQSGREVVRPGTSVKVSCKPSGYAFTNYLIDWVKQRPGQGLEWIGGINPGSGDTVYNEKFKAKATLTADKSSMTANMQLSSLTSDDSAVYFCARRVRGNSFDSWGQGTLVTVSA VL: DIQMTQSPSSLTVTAGEKVTMSCKSSQSLLNSGNQRNYLTWYQQKTGQPPKLLIYWASTRESGVPDRFTGSGSGTDFTLTINSVQAEDLAVYYCQNNYYYPLTFGAGTKLEIK | no binding (tested: 100 nM (highest concentration tested)) |
| 0.2 nM |  | 19B2 (antibody, V domains shown, also called Clone 19B2) VH: QVQLQQSGAELVKPGTSVKLSCKASGYSFTTYGLNWVRQRPKQGLEWIGWIFPGDGNVNYNEKFQGQATLTTDKSSSTAYMQLSRLTSEDSAVYFCARFYYGNSLNYWGQGTLVTVSA VL: DIVMTQSPSSLTVTAGEKVTMSCKSSQSLLNSGNLRNYLTWYQQKPGRPPKLLIYWASTRESGVPDRFTGSGSGTDFTLTISSVQAEDLAVYYCQNNYFYPLTFGAGTKLEIK | no binding (tested: 100 nM (highest concentration tested)) |
| 0.23 nM |  | 8C11 (antibody, V domains shown, also called Clone 8C11) VH: QVQLQQSGAELVKPGASVKLSCKASGYTFTTFGINWVRQRPEQGLEWIGWIFPGDGSIKYNEKFKGKATLTTDKSSSTAYMQISSLTSEDSAVYFCARFYYGNSFVSWGQGTLVTVSA VL: DIVMTQSPSSLAVTAGEKVTMTCKSSQSLLNSGNQKNYLTWYQQRPGQPPKLLLYWASTRESGVPDRFTGSGSGTDFALTITSVQAEDLAVYYCQNDYTYPFTFGSGTKLEIK | no binding (tested: 100 nM (highest concentration tested)) |
| 0.22 nM |  | 14H11 (antibody, V domains shown, also called Clone 14H11) VH: EVQLVESGGGLVKPGGSLKLSCAVSGFTINNYGMSWVRQTPEKRLEWVATIIGGGSSTYYPDSLKGRFTISRDNAKNNLYLQMSSLRSEDTALYYCVRLYFGNSFAYWGQGTLVTVSA VL: DIVMTQSPSSLTVTAGEKVTVSCKSSQSLSNSGNQRNYLTWYQQKPGQPPKLLIYWASTRESGVPDRFTGSGSGTDFTLTISSVQAEDLAVYYCQNNYFYPLTFGAGTKLELK | no binding (tested: 100 nM (highest concentration tested)) |
